Assay results as given in the DeepSol protein solubility set.

Experiment: soluble on expression in E. coli; label from the status in PepcDB or PDB records

Question: For “MSDSSPTNLPSRAFATQKLAKLIDRWTGNANQYDTPISGLRFSRWTTPTPPTSYTHNPSICLIAQGRKRVLLGEESFIYDANHFLISSVDLPIIANIIEASEEQPYLGLIMELDLTEISQLIVDSELAFTQSKEAQKGIAVGELSESLLDAFVRLAELLDEGQNIKILAPIIKREIFYRLLMSEQGTRLHQIATAGSHSHQIAKAIDWLKNNFVKPLSVGDLASYTGMSKSSFYTHFRSMTSMTPLQFQKKLRLSEARRLMLTENLDAMAATFKVGYESPSQFSREYSRLFGAPPSKDIKSLRENLG”, which “soluble on expression in E. coli” value is on record?
Answer: not soluble

Question: For “MVLSQKLHEAFKGTVERITGPRTISAFKEKGVLSVSEFVLAGDNLVSKCPTWSWESGDASKRKPYLPSDKQFLITRNVPCLRRAASVAEDYEAAGGEVLVDDEDNDGWLATHGKPKGKEEDNLPSMDALDINEKNTIQSIPTYFGGEEDDDIPDMEEFDEADNVVENDPATLQSTYLVAHEPDDDNILRTRTYDLSITYDKYYQTPRVWLTGYDESRMLLQPELVMEDVSQDHARKTVTIEDHPHLPGKHASVHPCRHGAVMKKIIDVLMSRGVEPEVDKYLFLFLKFMASVIPTIEYDYTMDFDLGSSST”, which “soluble on expression in E. coli” value is on record?
Answer: not soluble

Question: For “RRRPLSCDAASQAGSNYPRCWNCGGPWGPGREDRFFCPQCRALQAPDPTRDYFSLMDCNRSFRVDTAKLQHRYQQLQRLVHPDFFSQRSQTEKDFSEKHSTLVNDAYKTLLAPLSRGLYLLKLHGIEIPERTDYEMDRQFLIEIMEINEKLAEAESEAAMKEIESIVKAKQKEFTDNVSSAFEQDDFEEAKEILTKMRYFSNIEEKIKLKKIPL”, which “soluble on expression in E. coli” value is on record?
Answer: not soluble

Question: With “MNLEPPKAECRSATRVMGGPCTPRKGPPKCKQRQTRQCKSKPPKKGVQGCGDDIPGMEGCGTDITVICPWEACNHCELHELAQYGIC” as the sequence, how does the “soluble on expression in E. coli” value read?
Answer: soluble

Question: For “MSDSSNQLMPLSLSAPGVNLGAYISTVNQIPILTAEQEKELAERYYYDQDLDAAKMLVMSHLRFVVHIARSYAGYGLPQGDLIQEGNLGLMKAVKRFDPNMGVRLVSFAVHWIKAEIHEYVIRNWRIVKIATTKAQRKLFFNLRSLKKSSKKLTLEEAQSIANDLNVTPEQVLEMEGRLTAYDAAFETQGDDDDDSSTHVAPALYLEDNRYDPARLAENDDYEEQSSTALHEAMNQLDDRSRNILQRRWLDDDKSTLHELAAEYNVSAERIRQLEKNAMEKIKVAMSAG”, which “soluble on expression in E. coli” value is on record?
Answer: not soluble

Question: Which “soluble on expression in E. coli” value does the source give for “MLDRILSIRKSRANRLRESMAKINSQIKEVDGKLDDCEQSIKESIASKQAYCASLVNLDKVSLYKYQIKNNAFDEQKQRLYEKKSSLSKEKRSLLDSQKRTKENLQHVNKSVEKLSFAIKEHYFD” here?
Answer: not soluble

Question: For “MRQTNNKESTMKPTADILASIIEEVRPLTSKGIVADYIPALAKVPSDKLGIAVFTNQGEVITAGDAQEGFSIQSISKVLSLTLAMGLYQPDELWSRVGKEPSGQAFNSLIQLEMEQGIPRNPFINAGAIVVCDMLQSRLSAPRQRLLEFVRQLSGEPQIAYDKVVAASEMMHSDRNAAIAYLMRSFGNFHNEVIPVLHNYFHACALKMSCVELAKTFSYLANKGVSVVTGETVITPTQSKQTNALLATCGLYDGAGEFAYRVGMPGKSGVGGGIIAVVPGEMTIAVWSPALDQSGNSLAGTRALELLAQRIGRSIFLEHHHHHH”, which “soluble on expression in E. coli” value is on record?
Answer: soluble

Question: For “METETATTPTGNTEPTAAASAEPPKSDKVTVRLRNIADAPVLKNKKMVVNPTDTVASFILKLRKLLNIQANNSLFLYIDNTFAPSPDTTFETLSRCYSVKITDKEILELQYSITPAYG”, which “soluble on expression in E. coli” value is on record?
Answer: soluble

Question: Which “soluble on expression in E. coli” value does the source give for “MPQSYIVRTMRPADVEAVLRVQAAVYPASLLESAALFQNRIEIAPATCQVALDGQDLIGYLIAYPWDAGLPPALDRSLERLPGAADTWFVHDCAVLPAAQGGGVAAALLAGGRAQARRLGLRRASLVALAPAVGYWLRHGYQPLADSDALRAKLAGYGDGARYMVRADLAG” here?
Answer: not soluble

Question: With “MSLKAKAAFFDIDGTLYREGLISEVFKKLIKYEIIDEEKWYKEVRPEFEKWDNRKGDYDDYLLKMTEIYVDALNGLSKSQVEFIASQVVNQKGERVYTYTRDRIKWHKERGHKIITISGSPIELVRNMAEKYGFDDYRGAEYLLDENDVYTGEVIPMWDSKSKERAVHELEAKYNIDLGESYAYGDTSGDLTMLKMVGNPVCINPTKELVKEILSDEEVKNKIRIIVERKDMIYKISSRCLECDCEFVLEGHHHHHH” as the sequence, how does the “soluble on expression in E. coli” value read?
Answer: soluble

Question: With “MAHHHHHHMDRRHLELEDAQERASAEEVATQASAEHKHYMNDSDEDSDEENGIDDEQSASLVAMLRTQEEIDSAIAGFTKGTRMLLASSGNGYVSYLDGSVHFTIAKVESHNASNREKVMQALAGTNVAMPTAEEYSLEEVRQAMHDRDTARKKLDALRALQDPTYTARIRSAEKDTYGTPVQQLMEEDGDMSALVANCEDAKRFAESVRKAYNSRAAASAHALACALCTPPFTAEQESTSEAQAPAGKMANAEDGVSQPTGANSPSSSTSAQ” as the sequence, how does the “soluble on expression in E. coli” value read?
Answer: soluble

Question: Which “soluble on expression in E. coli” value does the source give for “GPGSMTKGGSSVAEDAQLRAADTFEEAQTLLDVMLKQFHTMERNRTDPFISKVVIAGELKEDSSRPFSQVFQELIDAATVKSRNPLSEQSCPPSPPSGIFLDYGTHFVGLFEAVDRYVAELLILMDAECKSTEEPIFSDVRVLYLNDDVVPLGGQYVCFVDKIPGVVAQSEKVDVPEDVIAEMVADDVRKLTKLLSLVLSEGVSKRKNFLDNARTSHPTLFPNTSSLKMYVKSDLFLTLDEYHRVFGKLPELVRDVEVNHPVDQPLKY” here?
Answer: soluble

Question: Which “soluble on expression in E. coli” value does the source give for “GPGSMLGGRHFQRKYEKKQKKKEAKKASQGPLRGAGGSSGVRAAVAAAAGAAVKRKDGSTLKGPVVSHGDFMASRDSANNRKNVPFSSKMEEKVYRKEHRVPKYNSIVDPERQNLAKAAGASSAAQRRRVLRQKGGDDLLDHFRERLNASTFRLLNEQVYNAPTTLASRLLREEATFRDYHTGYHQQLMQWPINPNKLIVESLLGDRRGRFLANKGKSMPGHIPPSWVVADMGCGEAQIAAALKPKGYTVHSFDFFALNSLVTVADTTKVPLADNHVDVCVFSLSLMATDYVKSLFEAFRVLKPKRLLKIIEVRSRVPFPRKFAELVEDIGFDVDYSDVAGDYFVAFDFIKKDGQAAANTQLRHEPGDVLVPSLYKKR” here?
Answer: soluble

Question: For “PGSMTVTQSQLELLIRNAFPEAEITVTSLVGDNNHYSIKVISSQFQGKSKLEQHRMIYKVLDGLNIHAIQIQTGCK”, which “soluble on expression in E. coli” value is on record?
Answer: soluble

Question: For “MALYAVDKPLHLTSHDVVEEARRRLSTRRVGHTGTLDPLATGLLLLVTNESTKLVPFLSGEDKEYIAWVSFGATTPTLDAEGPISEEAPARFDRKDLEAALPRFLEVREQVPPLYSAIKVGGKRAYEAAREGKPLALGPRPVRYLEVELLAFDPEPIPHPIAPSARGWRLAERRGRPVRLPRPLGAYPTAVVRLVVGPGTYVRAFARDLGEMLGTKAFLSGLVRTRVGRVGLERAVALSDLSPEKAIPELDVLPFPVVELSHTEARRVLEGMPLPIPAMGYVTLVDSKRRLLAIAEGDGFKLKIRRVFAKEA”, which “soluble on expression in E. coli” value is on record?
Answer: soluble

Question: For “MIRRENRLRREFIFRKSLEEKQKSLEEKREKIRNALENNTKIDYNLRKDAIELAKGSDWGGQQYETDSEYRWAGAQDPKIVITTSRDPSSRLKMFAKEMKLIFPNAQRINRGHYDVKQVVQASKAQDSTDLIIFTETRGNPDGMLVCHLPFGPTAFFSMANVVMRHDIPNCGTMSEQYPHLIFDNLNSKLGHRFTTILKHLFPVPKPDSKRIITFSNSEDYISFRHHVYKTENDGEVELTEAGPRFELKPYQIKLGTLETLAAAEDEWVLRSYTNTARKRTFLSISRADDDE”, which “soluble on expression in E. coli” value is on record?
Answer: not soluble

Question: For “MGSDKIHHHHHHDNDWVDQSRNPDVIAPDAYASFSINIPHASKTRAVSTDPGIAAENTVKSLHVFIYDAESPNTPTVAEFTVAGGTLTQKPAGSSTWMTSQPISTKKTDKYIFAGVNLNAEIVNYITSNGLGAFSYKDFTQEITKLADQTNGFVMFNSAYPTLTPAADLYEKKSEAENNHITISVNRVTAKAAVFQSQSFVVNGGGTMTDLKFGWRNLNKKFYFIQDNRDALIKDYNWANYTAEDFTRGTDAINVYASADVPTSFSYATENAFQYISGTSNVDAATFISVSGVFTPTNIISAKKNPPTVAADFEIIVNPKPVDKTFFVVRTADGVANYFIDGPTAEKFAELCAANTPQMPSINGIYLLSENTYSNGLCYYHIFVNGDAVTPQAPYNIYRNQYFKININSIQAPGNPSDNFDRGEPIKPNSWIGVDIQIIPWEVIEEDHDL”, which “soluble on expression in E. coli” value is on record?
Answer: not soluble

Question: Which “soluble on expression in E. coli” value does the source give for “MKIAIVGTGISGLTCGYYLHQQHDITLFEANDYIGGHTATVDVRVGIEDYAIDTGFIVYNDRTYPNFIKMMNEIGVEGIPTQMSFSVRNDGNGLEYNGHTLTTLFAQKRNWLNPKFYRFVLEILRFNKLAKASATEQISSSQSLGAFLDEHQFSDFFSDNYILPMGAAIWSSSLADMRAFPLMFFLRFFLNHGLLDVTNRPQWYVIKGGSRAYIPPLTQGFADKIRLNSPVEKVVRSEQGVAIYANGQCEWFDEVIFACHSDQALAMLSDASSCENDILSNMAYQANDVVLHTDTSVLPKRKSAWASWNYLLEGGEEEQQRLPSLTYNMNILQHIDSSHTFCVTLNRTEDIDENKILRQFTYHHPVFTTESIAAQQRKEEIQGAQHTWFCGAYWYNGFHEDGVRSALDVVKGIAAKHNEKNDTLYEQGAALEHHHHHH” here?
Answer: soluble

Question: Which “soluble on expression in E. coli” value does the source give for “MEDYLVKALCYKGSIRAYAISATETVSEAQRRHDTWSSSTAALGRTLIGALLLGATLKGDDKLTVKVQGNGPAGAIIVDSNGRGETKGYIKNPHVSLKLNATGKIDVRGAVGNEGIFTVIKDLGLKETFSGQTPIVSGEIGEDFTYFMAVSEQVPSAIGLGVLVDTDESVKAAGGFMIQVMPGADESTIDFIEQRLAEVPPISQLLENGETPEQVLYRLLGEDEVEILEKMPVQFKCDCSKEKFATALIAVGIDELNAMIDEDHGAEAVCQFCNNKYHYSEEELIELRDEAIRNTKQK” here?
Answer: not soluble

Question: For “SNAMTEARKIPKPSFPYGSPGELNSFLPYLLTRITHIWSSELNQALASEKLPTPKLRLLSSLSAYGELTVGQLATLGVMEQSTTSRTVDQLVDEGLAARSISDADQRKRTVVLTRKGKKKLAEISPLINDFHAELVGNVDPDKLQTCIEVLGEILKGKTDY”, which “soluble on expression in E. coli” value is on record?
Answer: soluble

Question: For “MGSDKIHHHHHHMENQLLTLKNNELTVQINPKGAELTHVIENKNKFDFIWNGSEWPKHAPILFPAIGRSTDDEYLLNQKIYPMQQHGFASDYFFEIIDQKEDQISLSLKDNEETYQSYPFQFELKVTYQLVSKKLKIQFEIKNLSVKKLTFALGFHPAFNLSANFEDYQISFETKDKTLKQFEIVKNPFPYRSGKIIEINKAVSNFPLEREFFEKGLVIFDNKIEEVKLFSQETDYQMTMKMADFPYLCLWTKEDENLSYLCIEPFQGLPDILNQKQELLQKEGNISLKSNESKTYEVELTFNSNKGES”, which “soluble on expression in E. coli” value is on record?
Answer: not soluble

Question: Which “soluble on expression in E. coli” value does the source give for “MKFTSATGSGSGQGSSSGTNTSAGNPDGLQADKVDQNGQVKTSVQEATSGDNLTNYTNLPPANLTPTADPNALSFTNKNNAQRAQLFLRGLLGSIPVLVNKSGQDDLEHHHHHH” here?
Answer: not soluble

Question: With “MTMTMSYKAIEKIPRCSWNREEPGEQWNKIYSVETGLLGTYSFEWQSQVANKTMRKRNTNSICGRQHEPHCPVSITRAIAQPQLLTFPDSLASRGGHMTQSGQCHVSGSLLGRGHKSRGR” as the sequence, how does the “soluble on expression in E. coli” value read?
Answer: soluble

Question: With “MGSDKIHHHHHHAQDKKKEFKMPTGYAGITHEMSEFYEPVPPVVTPGTDLKGGGFTAPSDAIVLFDGKDLSAWESVKGGAAEWDVHDGVFTVNKKKGDIQTKQKFNDFQMHIEWQVPTNITGESQSRGNSGIFLQGMYEVQVLDCYNNPTYVNGQTGSIYKQSIPLANAMRKPGEWNVYDIIYTAPTFKEDGSYRTHPTVTVIQNGVVLQNHTTILGTTEWIGFPQVKKHGAGPIILQSHGDPSEPISFRNIWIREL” as the sequence, how does the “soluble on expression in E. coli” value read?
Answer: not soluble
